Laboratory results reported in PMC3569440, “Recombinant Production of Human Aquaporin-1 to an Exceptional High Membrane Density in Saccharomyces cerevisiae” (PLoS ONE, 2013).
Where “and” joins values, the source holds several entries; their conditions need not be identical. Equal entries are not always repeated.

Target: the molecule itself
Test: SEC; fluorescence-detection size-exclusion chromatography (FSEC); crude membranes (2 mg/ml) solubilized in CYMAL-5 or DDM at a detergent:protein ratio of 3, 50 mM phosphate pH 7.5, 10 mM imidazole, 500 mM NaCl, 4°C; Superose 12 10/300 GL; GFP fluorescence of fractions

B1: human Aquaporin-1 C-terminally tagged with yeast enhanced GFP and eight histidines (hAQP1-GFP-8His) (natural protein, UniProt P29972 1-269, looked up)
chain: MASEFKKKLFWRAVVAEFLATTLFVFISIGSALGFKYPVGNNQTAVQDNVKVSLAFGLSIATLAQSVGHISGAHLNPAVTLGLLLSCQISIFRALMYIIAQCVGAIVATAILSGITSSLTGNSLGRNDLADGVNSGQGLGIEIIGTLQLVLCVLATTDRRRRDLGGSAPLAIGLSVALGHLLAIDYTGCGINPARSFGSAVITHNFSNHWIFWVGPFIGGALAVLIYDFILAPRSSDLTDRVKVWTSGQVEEYDLDADDINSRVEMKPK
notes: human Aquaporin-1 (hAQP1), 269 amino acids; coding part of the cDNA without a translational stop codon, fused in frame to yeast enhanced GFP and eight histidines; not N-glycosylated in yeast; Order on the chain: hAQP1, yEGFP, 8 His; also called hAQP1-GFP-His8; Aquaporin-1-GFP; source: S. cerevisiae PAP1500 (plasmid pPAP8230), crude membranes solubilized in CYMAL-5 or DDM; also purified (CYMAL-5, …)
  stoichiometry N: 4 and > 4
